In publication PMC7721737, “Cytosolic sequestration of the vitamin D receptor as a therapeutic option for vitamin D-induced hypercalcemia” (Nature Communications, 2020):

Legend:
[1] = target: T1, full-length human vitamin D receptor (hVDR, amino acid 1-427), His-tagged (human, UniProt P11473 1-427); assay: MST; ZK-bound VDR
T1 chain: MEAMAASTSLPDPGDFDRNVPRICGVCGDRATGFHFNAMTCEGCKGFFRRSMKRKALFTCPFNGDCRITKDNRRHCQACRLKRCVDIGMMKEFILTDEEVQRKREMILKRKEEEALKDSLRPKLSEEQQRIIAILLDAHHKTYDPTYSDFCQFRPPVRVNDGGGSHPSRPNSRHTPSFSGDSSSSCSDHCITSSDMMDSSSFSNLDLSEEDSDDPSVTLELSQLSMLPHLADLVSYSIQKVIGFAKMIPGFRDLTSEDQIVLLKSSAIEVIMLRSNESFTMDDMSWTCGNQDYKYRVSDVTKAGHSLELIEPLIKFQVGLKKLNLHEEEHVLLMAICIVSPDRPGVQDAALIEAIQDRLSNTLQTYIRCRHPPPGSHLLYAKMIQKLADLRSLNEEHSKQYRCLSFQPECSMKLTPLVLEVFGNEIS

[2] = target: T2, full-length human vitamin D receptor (hVDR, amino acid 1-427), His-tagged (human, UniProt P11473 1-427); assay: MST; Monolith NT.115; 10 nM Red-NHS labelled full-length hVDR with or without ZK; unlabelled WBP4 122-196 from 100 µM to 1 nM; 20 mM Hepes pH 7.5, 200 mM NaCl, 2% glycerol, 1 mM TCEP, 0.05% Tween 20; 25 °C; 1:1 fit, apparent Kd; conditions: both partners purified
T2 construct: For microscale thermophoresis the protein was labelled with the Red-NHS second generation labelling kit (NanoTemper); also called NR1I1; hVDR full-length; source: E. coli BL21 DE3, purified (HisTrap, SEC)
T2 sequence (looked up): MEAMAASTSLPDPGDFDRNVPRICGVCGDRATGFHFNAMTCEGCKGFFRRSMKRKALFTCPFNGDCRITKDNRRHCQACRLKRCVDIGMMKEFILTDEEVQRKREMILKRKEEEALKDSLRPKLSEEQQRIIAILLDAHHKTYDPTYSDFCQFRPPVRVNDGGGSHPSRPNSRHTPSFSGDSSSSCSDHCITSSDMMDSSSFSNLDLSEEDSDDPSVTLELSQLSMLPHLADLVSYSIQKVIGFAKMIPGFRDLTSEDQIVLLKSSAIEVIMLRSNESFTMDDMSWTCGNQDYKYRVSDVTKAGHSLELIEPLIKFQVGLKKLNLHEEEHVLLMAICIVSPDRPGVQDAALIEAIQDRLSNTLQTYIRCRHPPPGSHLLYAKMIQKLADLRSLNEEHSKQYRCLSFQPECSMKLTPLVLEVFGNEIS

[3] = target: T3, ligand binding domain of hVDR (aa 118-427), His-tagged (human, UniProt P11473 118-427); assay: SPR; Biacore T200, hRXRα LBD monomers amine-coupled on CM5 (400-500 RU); hVDR LBD 1-30 µM without ligand or with a 3-fold excess of 1,25D3 or ZK; 50 mM Tris pH 7.5, 150 mM NaCl, 1 mM TCEP, 0.005% Tween 20; steady state fit; conditions: both partners purified
T3 construct: also called hVDR LBD; source: E. coli BL21 DE3, purified (HisTrap, SEC)
T3 sequence (looked up): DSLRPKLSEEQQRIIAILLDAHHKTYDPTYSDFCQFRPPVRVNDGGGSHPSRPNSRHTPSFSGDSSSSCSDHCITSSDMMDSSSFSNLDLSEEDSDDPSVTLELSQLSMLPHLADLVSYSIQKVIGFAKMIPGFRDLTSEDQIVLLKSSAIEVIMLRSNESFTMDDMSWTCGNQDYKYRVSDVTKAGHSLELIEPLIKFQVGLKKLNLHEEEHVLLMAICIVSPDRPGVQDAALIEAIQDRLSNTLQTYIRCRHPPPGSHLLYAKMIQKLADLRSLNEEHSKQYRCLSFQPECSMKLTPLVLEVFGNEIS

[4] = target: T2, full-length human vitamin D receptor …; assay: SEC; mixed in stoichiometric amounts and purified on HiLoad Superdex 200 in 20 mM Tris pH 8.0, 75 mM NaCl, 75 mM KCl, 2 mM CHAPS, 5% glycerol, 4 mM MgSO4, 1 mM TCEP; heterodimer then used for HDX-MS (apo, 1,25D3, ZK); conditions: both partners purified

B1: hWBP4 polypeptide (amino acid 122-196) encompassing the two WW domains (domain or fragment, human, UniProt O75554 122-196, looked up)
chain: DPSKGRWVEGITSEGYHYYYDLISGASQWEKPEGFQGDLKKTAVKTVWVEGLSEDGFTYYYNTETGESRWEKPDD
notes: also called FBP21; source: E. coli BL21 DE3, purified (glutathione sepharose, thrombin cleavage, SEC); not shown: GST, N-terminal, cleaved
In the case of B1, the Kd [1] is reported as 11 µM and the “fold increase of the affinity in the presence of ZK against without ZK” value [2] is reported as ~2 fold.

B2: ligand binding domain of hRXRα (aa 223-462), His-tagged (domain or fragment, human, UniProt P19793 223-462, looked up)
chain: TSSANEDMPVERILEAELAVEPKTETYVEANMGLNPSSPNDPVTNICQAADKQLFTLVEWAKRIPHFSELPLDDQVILLRAGWNELLIASFSHRSIAVKDGILLATGLHVHRNSAHSAGVGAIFDRVLTELVSKMRDMQMDKTELGCLRAIVLFNPDSKGLSNPAEVEALREKVYASLEAYCKHKYPEQPGRFAKLLLRLPALRSIGLKCLEHLFFFKLIGDTPIDTFLMEMLEAPHQMT
notes: Immobilised as monomers on the SPR chip; also called hRXRα LBD; source: E. coli BL21 DE3, purified (HisTrap, SEC)
B2: binds [3].

B3: N-terminal domain truncated human RXRalpha (hRXRαΔNTD, amino acid 130-462), His-tagged (domain or fragment, UniProt P19793 130-462, looked up)
chain: FTKHICAICGDRSSGKHYGVYSCEGCKGFFKRTVRKDLTYTCRDNKDCLIDKRQRNRCQYCRYQKCLAMGMKREAVQEERQRGKDRNENEVESTSSANEDMPVERILEAELAVEPKTETYVEANMGLNPSSPNDPVTNICQAADKQLFTLVEWAKRIPHFSELPLDDQVILLRAGWNELLIASFSHRSIAVKDGILLATGLHVHRNSAHSAGVGAIFDRVLTELVSKMRDMQMDKTELGCLRAIVLFNPDSKGLSNPAEVEALREKVYASLEAYCKHKYPEQPGRFAKLLLRLPALRSIGLKCLEHLFFFKLIGDTPIDTFLMEMLEAPHQMT
notes: source: E. coli BL21 DE3, purified (HisTrap, SEC)
B3: binds [4].
